This experiment concerns the target His-tagged BspC labelled with the Monolith His-Tag Labeling Kit RED-tris-NTA 2nd Generation (Streptococcus agalactiae). Put plainly: MST; labelled His-tagged BspC constant at 10 nM, vimentin titrated 1:1 in 16 steps from 20 μM to 0 μM; standard capillaries, Monolith NT.115 Pico, 20% excitation power, 40% MST power; three independent experiments.

As usually defined, the Kd is a measure of binding affinity in units of concentration. A lower Kd goes with a tighter complex.

“vimentin purchased from Novus Biologicals (from UniProt P08670 1-466) (natural protein)” displayed a Kd of 3.39 µM.

(Values after article PMC6586375.)
